Measured values reported in patent US8273342B2, “Anti-virus therapy for respiratory diseases” (University of Southampton, priority 2004, dated 2012).

B1: IFN-β-ser: recombinant interferon-beta serine, nasal drops tested in published prophylaxis trials (protein, UniProt P01574 22-187, looked up, variant C17S)
Interferon beta: MSYNLLGFLQRSSNFQSQKLLWQLNGRLEYCLKDRMNFDIPEEIKQLQQFQKEDAALTIYEMLQNIFAIFRQDSSSTGWNETIVENLLANVYHQINHLKTVLEEKLEKEDFTRGKLMSSLHLKRYYGRILHYLKAKEYSHCAWTIVRVEILRNFYFINRLTGYLRN
B2: IFN-λ1: type III interferon, Interferon λ-1 also known as IL-29, amino acid sequence SEQ ID NO: 5 (protein, listed as Homo sapiens)
chain: MAAAWTVVLVTLVLGLAVAGPVPTSKPTTTGKGCHIGRFKSLSPQELASFKKARDALEESLKLKNWSCSSPVFPGNWDLRLLQVRERPVALEAELALTLKVLEAAAGPALEDVLDQPLHTLHHILSQLQACIQPQPTAGPRPRGRLHHWLHRLQEAPKKESAGCLEASVTFNLFRLLTRDLKYVADGNLCLRTSTHPEST

Columns and labels:
rhinovirus [1] = conditions: general population volunteers, Higgins et al. 1986; cited from earlier work
natural colds = conditions: Sperber et al. 1989; cited from earlier work
RV16 [2] = test: RV16 viral RNA in BEAS2B cell lysates, TaqMan PCR; assay type: cell-based, rhinovirus; conditions: BEAS2B cells treated 24 h with different doses of IFN-λ1 before infection
Protocol: (§1) The human bronchial epithelial cell-line BEAS2B was infected with RV. TaqMan® PCR was used to identify IFN-λs mRNA expression and a bioassay was employed for corresponding protein production. BEAS2B cells were treated for 24 h with different doses of IFN-λ1 before infection with RV. Both TaqMan® PCR for viral RNA in cell lysates and viral titration of the BEAS2B supernatant were performed to investigate the antiviral effect.
(§2) The human bronchial epithelial cell-line BEAS2B and bronchial primary cells from asthmatics (6) and normal patients (5) were infected with RV16. TaqMan® PCR for IFN-λ mRNA expression was used. BEAS2B cells were treated with IFN-λ1 before infection with RV16. Both TaqMan® PCR for viral RNA in cell lysates and viral titration of the BEAS2B supernatant were performed to investigate the antiviral effect. TaqMan® PCR for viral RNA in cell lysates of primary cells was used also to test weather RV16 infectivity was different between primary cells from asthmatics and normals.

RV16 [3] = test: RV16 virus release, viral titration of BEAS2B supernatant; assay type: cell-based, rhinovirus; conditions: BEAS2B cells treated 24 h with different doses of IFN-λ1 before infection
Protocol: as §1, §2

rhinovirus [4] = test: Virus induced cytopathic effect in HeLa cell titration assay; assay type: cell-based
BEAS2B cells = test: Induction of type I and type III interferons in BEAS2B cells; assay type: cell-based, human

| Molecule | effect against experimental rhinovirus infection (rhinovirus [1]) | prophylaxis of natural colds (natural colds) | rhinovirus 16 viral RNA in cell lysates (RV16 [2]) | rhinovirus 16 viral RNA in cell lysates (RV16 [2]; listed as IFNλ-1) | virus release in the supernatant by viral titration (RV16 [3]) | virus release in the supernatant by viral titration (RV16 [3]; listed as IFNλ-1) | virus induced cytopathic effect (rhinovirus [4]) | induction of IFNλ-1, IFNλ2-3 and interferon β (BEAS2B cells) |
| --- | --- | --- | --- | --- | --- | --- | --- | --- |
| B1 | promising beneficial effects | ineffective |  |  |  |  |  |  |
| B2 |  |  | dose-dependent anti-viral effect | reducing rhinovirus 16 viral RNA expression | dose-dependent anti-viral effect | reducing virus release | inhibited | induces itself as well as IFNλ2-3 and interferon β |
